# T1: IL-11 (UniProt P20809 22-199, limits assumed)
# T1 construct: also called IL-11 protein; IL-11 antigen
# T1 sequence (looked up): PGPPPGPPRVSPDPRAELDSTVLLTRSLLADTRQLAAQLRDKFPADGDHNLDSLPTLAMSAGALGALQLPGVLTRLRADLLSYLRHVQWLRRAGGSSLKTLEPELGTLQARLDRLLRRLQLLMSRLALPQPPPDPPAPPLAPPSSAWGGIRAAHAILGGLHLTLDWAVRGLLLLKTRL
# B1: 1A10 (scFv)
# scFv: QVQLVQSGAEVKKPGASVKVSCKASDYTFTNYWLGWVRQAPGQGLEWMGHIYPGGGYTNYNEKFKGRVTMTRDTSTSTVYMELSSLRSEDTAVYYCARVSSGNDALDFWGQGTLVTVSSGGGGSGGGGSGGGGSEIVLTQSPATLSLSPGERATLSCRASESVDEYGISFMNWFQQKPGQAPRLLIYSASNQGSGIPARFSGSGSGTDFTLTISSLEPEDFAVYFCQQSKEQPWTFGGGTKLEIK
# B2: “VH4+VL3”-scFv (scFv)
# scFv: QVQLVQSGAEVKKPGASVKVSCKASDYTFTNYWLGWVRQAPGHGLEWIGHIYPGGGYTNYNEKFKGRATLTADTSTSTVYMELSSLRSEDTAVYFCARVRSGNDALDFWGQGTLVTVSSGGGGSGGGGSGGGGSEIVLTQSPATLSLSPGERATLSCRASESVDEYGISFMNWFQQKPGQAPRLLIYSASNQGSGIPARFSGSGSGTDFTLTISSLEPEDFAVYFCQQSKEVPWTFGGGTKLEIK
# B3: “VH3+VL1”-scFv (scFv)
# scFv: QVQLVQSGAEVKKPGASVKVSCKASDYTFTNYWLGWVRQAPGQGLEWIGHIYPGGGYTNYNEKFKGRATLTADTSTSTVYMELSSLRSEDTAVYFCARVRSGNDALDFWGQGTLVTVSSGGGGSGGGGSGGGGSEIVLTQSPATLSLSPGERATLSCRASESVDEYGISFMNWYQQKPGQAPRLLIYSASNQGSGIPARFSGSGSGTDFTLTISSLEPEDFAVYYCQQSKEVPWTFGGGTKLEIK
# B4: 1F7 (scFv)
# scFv: QVQLVQSGAEVKKPGASVKVSCKASDYTFTNYWLAWVRQAPGQGLEWMGHIYPGGGYTNYNEKFKGRVTMTRDTSTSTVYMELSSLRSEDTAVYYCARVRSGNDALDFWGQGTLVTVSSGGGGSGGGGSGGGGSEIVLTQSPATLSLSPGERATVSCRASESVDEYGISFMNWFQQKPGQAPTLLIYSASNLGSGIPARFSGSGSGTDFTLTISSLEPEDFAVYFCQQSKEVPWTFGGGTKLEIK
# notes: As m119: scFv on phage
# B5: “VH4+VL4”-scFv (scFv)
# scFv: QVQLVQSGAEVKKPGASVKVSCKASDYTFTNYWLGWVRQAPGHGLEWIGHIYPGGGYTNYNEKFKGRATLTADTSTSTVYMELSSLRSEDTAVYFCARVRSGNDALDFWGQGTLVTVSSGGGGSGGGGSGGGGSEIVLTQSPATLSLSPGERATLSCRASESVDEYGISFMNWFQQKPGQAPRLLIYSASNQGSGIPARFSGSGSGTDFTLTISSLEPEDFAMYFCQQSKEVPWTFGGGTKLEIK
# B6: “VH4+VL2”-scFv (scFv)
# scFv: QVQLVQSGAEVKKPGASVKVSCKASDYTFTNYWLGWVRQAPGHGLEWIGHIYPGGGYTNYNEKFKGRATLTADTSTSTVYMELSSLRSEDTAVYFCARVRSGNDALDFWGQGTLVTVSSGGGGSGGGGSGGGGSEIVLTQSPATLSLSPGERATLSCRASESVDEYGISFMNWYQQKPGQAPRLLIYSASNQGSGIPARFSGSGSGTDFTLTISSLEPEDFAVYFCQQSKEVPWTFGGGTKLEIK
# B7: “VH3+VL2”-scFv (scFv)
# scFv: QVQLVQSGAEVKKPGASVKVSCKASDYTFTNYWLGWVRQAPGQGLEWIGHIYPGGGYTNYNEKFKGRATLTADTSTSTVYMELSSLRSEDTAVYFCARVRSGNDALDFWGQGTLVTVSSGGGGSGGGGSGGGGSEIVLTQSPATLSLSPGERATLSCRASESVDEYGISFMNWYQQKPGQAPRLLIYSASNQGSGIPARFSGSGSGTDFTLTISSLEPEDFAVYFCQQSKEVPWTFGGGTKLEIK
# B8: “VH3+VL3”-scFv (scFv)
# scFv: QVQLVQSGAEVKKPGASVKVSCKASDYTFTNYWLGWVRQAPGQGLEWIGHIYPGGGYTNYNEKFKGRATLTADTSTSTVYMELSSLRSEDTAVYFCARVRSGNDALDFWGQGTLVTVSSGGGGSGGGGSGGGGSEIVLTQSPATLSLSPGERATLSCRASESVDEYGISFMNWFQQKPGQAPRLLIYSASNQGSGIPARFSGSGSGTDFTLTISSLEPEDFAVYFCQQSKEVPWTFGGGTKLEIK
# B9: “VH3+VL4”-scFv (scFv)
# scFv: QVQLVQSGAEVKKPGASVKVSCKASDYTFTNYWLGWVRQAPGQGLEWIGHIYPGGGYTNYNEKFKGRATLTADTSTSTVYMELSSLRSEDTAVYFCARVRSGNDALDFWGQGTLVTVSSGGGGSGGGGSGGGGSEIVLTQSPATLSLSPGERATLSCRASESVDEYGISFMNWFQQKPGQAPRLLIYSASNQGSGIPARFSGSGSGTDFTLTISSLEPEDFAMYFCQQSKEVPWTFGGGTKLEIK
# B10: 1E12 (scFv)
# scFv: QVQLVQSGAEVKKPGASVKVSCKASDYTFTNYWLGWVRQAPGQGLEWMGHIYPGGGYTNYNEKFKGRVTMTRDTSTSTVYMELSSLRSEDTAVYYCARVSSGNDALDLWGQGTLVTVSSGGGGSGGGGSGGGGSEIVLTQSPATLSLSPGERATLSCRASESVDEYGISFMNWFQQKPGQAPRLLIYSGSNEGSGIPARFSGSGSGTDFTLTISSLEPEDFAVYFCNQSKEVPWTFGGGTKLEIK
# notes: As m119: scFv on phage
# B11: “VH4+VL1”-scFv (scFv)
# scFv: QVQLVQSGAEVKKPGASVKVSCKASDYTFTNYWLGWVRQAPGHGLEWIGHIYPGGGYTNYNEKFKGRATLTADTSTSTVYMELSSLRSEDTAVYFCARVRSGNDALDFWGQGTLVTVSSGGGGSGGGGSGGGGSEIVLTQSPATLSLSPGERATLSCRASESVDEYGISFMNWYQQKPGQAPRLLIYSASNQGSGIPARFSGSGSGTDFTLTISSLEPEDFAVYYCQQSKEVPWTFGGGTKLEIK
# B12: 1B1 (scFv)
# scFv: QVQLVQSGAVVKKPGASVKVSCKASDYTFTNYWLGWVRQAPGQGLEWMGHIYPGGGYTNYNEKFKGRVTMTSDTSTSTVYMELSSLSSEDTAVYYCARVRSGNDALDFWGQGTLVTVSSGGGGSGGGGSGGGGSEIVLTQSPATLSLSPGERATLSCHASESVDEYGISFMNWFQQKPGQAPRLLIYSASNQGSGIPARFSGSGSGTDFTLTISSLEPEDFAVYFCQQSKEVPWTFGGGTKLEIK
# notes: As m119: scFv on phage
# B13: 1F9 (scFv)
# scFv: QVQLVQSGAEVKKPGASVKVSCKASDYTFHNYWLGWVRQAPGQGLEWMGHIYPGGGYTNYNEKFKGRVTMTRDTSTSTVYMELSSLRSEDTAVYYCARVSSGNDALDFWGQGTLVTVSSGGGGSGGGGSGGGGSEIVLTQSPATLSLSPGERATLSCRASESVDEYGISFMNWFQQKPGQAPRLLIYSASNQGSGIPARFSGSGSGTDFTLTISSLEPEDFAVYFCQQSKELPWTFGGGTKLEIK
# notes: As m119: scFv on phage
# B14: “VH2+VL4”-scFv (scFv)
# scFv: QVQLVQSGAEVKKPGASVKVSCKASDYTFTNYWLGWVRQAPGQGLEWIGHIYPGGGYTNYNEKFKGRVTMTADTSTSTVYMELSSLRSEDTAVYFCARVRSGNDALDFWGQGTLVTVSSGGGGSGGGGSGGGGSEIVLTQSPATLSLSPGERATLSCRASESVDEYGISFMNWFQQKPGQAPRLLIYSASNQGSGIPARFSGSGSGTDFTLTISSLEPEDFAMYFCQQSKEVPWTFGGGTKLEIK
# Key:
# IL-11 [1] = target: T1, IL-11; experiment: flow cytometry of phage clone; cells not given
# IL-11 [2] = target: T1, IL-11; experiment: phage ELISA on IL-11
# IL-11 [3] = target: T1, IL-11; experiment: SPR Biacore, scFv captured, IL-11 400 nM
# Method: The measure method included the steps of capturing the humanized single-chain antibody at a flow rate of 10 uL/min. […] Finally, the chip was regenerated with 10 mM glycine buffer.
Binder,Flow (Mean) (IL-11 [1]),ELISA (IL-11 [2]),Kd (IL-11 [3]),koff (IL-11 [3]),kon (IL-11 [3])
B1,2200 mean fluorescence,2.06,–,–,–
B2,–,–,11.2 nM,0.000516 s⁻¹,46100 M⁻¹ s⁻¹
B3,–,–,22.5 nM,0.001 s⁻¹,44500 M⁻¹ s⁻¹
B4,1860 mean fluorescence,2.38,–,–,–
B5,–,–,10 nM,0.000481 s⁻¹,47900 M⁻¹ s⁻¹
B6,–,–,11.1 nM,0.000614 s⁻¹,55200 M⁻¹ s⁻¹
B7,–,–,14.6 nM,0.00068 s⁻¹,46500 M⁻¹ s⁻¹
B8,–,–,9.76 nM,0.000464 s⁻¹,47600 M⁻¹ s⁻¹
B9,–,–,13.3 nM,0.000556 s⁻¹,41800 M⁻¹ s⁻¹
B10,6320 mean fluorescence,2.2,–,–,–
B11,–,–,17.2 nM,0.00084 s⁻¹,48900 M⁻¹ s⁻¹
B12,3500 mean fluorescence,1.46,–,–,–
B13,3820 mean fluorescence,2.59,–,–,–
B14,–,–,10.8 nM,0.000528 s⁻¹,48800 M⁻¹ s⁻¹

# Source: US20250002574A1 (SUNSHINE LAKE PHARMA, published 2025)
